Data published in PMC8373075 (Nucleic Acids Research, 2021).

Biological target: T1, FLAG-CTIF-F460A (human, UniProt O43310 1-598, F460A)
T1 sequence (looked up): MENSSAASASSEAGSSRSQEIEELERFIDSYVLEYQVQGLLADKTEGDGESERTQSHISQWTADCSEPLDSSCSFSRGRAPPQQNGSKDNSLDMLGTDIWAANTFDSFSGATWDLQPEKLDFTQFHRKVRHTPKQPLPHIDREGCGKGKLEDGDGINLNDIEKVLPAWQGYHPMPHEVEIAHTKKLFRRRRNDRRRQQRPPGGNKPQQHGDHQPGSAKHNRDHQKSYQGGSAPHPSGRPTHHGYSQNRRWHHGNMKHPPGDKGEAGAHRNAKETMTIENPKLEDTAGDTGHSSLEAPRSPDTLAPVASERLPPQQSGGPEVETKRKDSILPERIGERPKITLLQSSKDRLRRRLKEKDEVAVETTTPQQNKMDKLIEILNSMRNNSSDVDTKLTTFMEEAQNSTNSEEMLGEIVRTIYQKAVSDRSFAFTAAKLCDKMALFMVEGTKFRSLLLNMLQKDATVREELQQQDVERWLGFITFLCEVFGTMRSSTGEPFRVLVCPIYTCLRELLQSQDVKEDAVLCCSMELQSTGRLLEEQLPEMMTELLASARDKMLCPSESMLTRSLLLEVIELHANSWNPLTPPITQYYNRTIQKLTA
Test: co-IP

B1: endogenous CBP80 (natural protein, human (endogenous in HEK293T), UniProt Q09161 1-790, looked up)
chain: MSRRRHSDENDGGQPHKRRKTSDANETEDHLESLICKVGEKSACSLESNLEGLAGVLEADLPNYKSKILRLLCTVARLLPEKLTIYTTLVGLLNARNYNFGGEFVEAMIRQLKESLKANNYNEAVYLVRFLSDLVNCHVIAAPSMVAMFENFVSVTQEEDVPQVRRDWYVYAFLSSLPWVGKELYEKKDAEMDRIFANTESYLKRRQKTHVPMLQVWTADKPHPQEEYLDCLWAQIQKLKKDRWQERHILRPYLAFDSILCEALQHNLPPFTPPPHTEDSVYPMPRVIFRMFDYTDDPEGPVMPGSHSVERFVIEENLHCIIKSHWKERKTCAAQLVSYPGKNKIPLNYHIVEVIFAELFQLPAPPHIDVMYTTLLIELCKLQPGSLPQVLAQATEMLYMRLDTMNTTCVDRFINWFSHHLSNFQFRWSWEDWSDCLSQDPESPKPKFVREVLEKCMRLSYHQRILDIVPPTFSALCPANPTCIYKYGDESSNSLPGHSVALCLAVAFKSKATNDEIFSILKDVPNPNQDDDDDEGFSFNPLKIEVFVQTLLHLAAKSFSHSFSALAKFHEVFKTLAESDEGKLHVLRVMFEVWRNHPQMIAVLVDKMIRTQIVDCAAVANWIFSSELSRDFTRLFVWEILHSTIRKMNKHVLKIQKELEEAKEKLARQHKRRSDDDDRSSDRKDGVLEEQIERLQEKVESAQSEQKNLFLVIFQRFIMILTEHLVRCETDGTSVLTPWYKNCIERLQQIFLQHHQIIQQYMVTLENLLFTAELDPHILAVFQQFCALQA
B1 was tested, and the “fold change of the co-immunoprecipitated amount against the IP of CTIF-WT” value was roughly 2.8 fold.
